Residue numbers refer to the chain shown, from its start. Names may count otherwise.
What was measured:
[1] = biological target: GlyDH (glycerol dehydrogenase) of Nishise et al, 1984 (Cellulomonas); conditions: read-out: Ki (hydroxyacetone), literature; cited from earlier work
[2] = biological target: T1, E. coli glycerol dehydrogenase (GlyDH, GldA) mutant GlyDH*(A160T) (Escherichia coli, UniProt P0A9S5, A160T); assay: Inhibition by substrate hydroxyacetone (Dixon plot), GlyDH*(A160T); type: biochemical; set-up: made in house; host or cells: E. coli BL21 star (DE3) ΔgldA::Cm with pETTOPO-gldA*(A160T); conditions: crude extract
T1 sequence (P0A9S5 1-367 A160T): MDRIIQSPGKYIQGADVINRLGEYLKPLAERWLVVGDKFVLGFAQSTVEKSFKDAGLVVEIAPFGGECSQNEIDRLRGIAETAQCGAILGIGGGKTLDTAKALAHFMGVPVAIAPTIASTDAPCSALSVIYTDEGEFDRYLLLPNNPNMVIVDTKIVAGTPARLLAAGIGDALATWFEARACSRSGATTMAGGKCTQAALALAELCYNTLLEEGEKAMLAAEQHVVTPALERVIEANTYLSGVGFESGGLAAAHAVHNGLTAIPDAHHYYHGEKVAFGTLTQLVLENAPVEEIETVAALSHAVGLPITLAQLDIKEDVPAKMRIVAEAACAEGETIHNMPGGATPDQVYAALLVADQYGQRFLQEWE
Experimental: (§1) The 3 strains E. coli MG1655 pME101-VB01-gldA, E. coli MG1655 pME101-VB01-gldA*(A160T) and E. coli MG1655 pME101-VB01-gldA*(T120N) were cultivated in minimal medium with 10 g/l glucose as carbon source in 500 ml baffled Erlenmeyer flasks with 50 ml culture medium. The culture was carried out on a rotary shaker at 200 rpm. The temperature of the culture was maintained at 37° C. and the pH of the medium was buffered with MOPS (initial pH 6.8). Expression of the gene on the pME101-VB01 plasmid was induced by adding 100 μM IPTG at the beginning of the culture. The cultures were stopped at mid-exponential phase. The biomass was harvested by centrifugation, the supernatant was discarded and the pellet was stored at −20° C. before use.
(§2) Between 55-65 mg of E. coli biomass were resuspended in 9 ml of 100 mM Potassium phosphate pH 7, 0.1 mM DTT, 0.1 mM pyridoxal 5′-phosphate (PLP) and a protease inhibitor cocktail. Cells were sonicated on ice (Branson sonifier, 70 W) during four cycles of 30 sec with 30 sec intervals. After sonication, cells debris were removed by centrifugation at 12000 g for 30 min at 4° C. The crude extracts were desalted using an Econo-Pac 10 DG column (BioRad).

[3] = biological target: T2, E. coli glycerol dehydrogenase (GlyDH, GldA) mutant GlyDH*(T120N) (Escherichia coli, UniProt P0A9S5, T120N); assay: Inhibition by substrate hydroxyacetone (Dixon plot), GlyDH*(T120N); type: biochemical; set-up: made in house; host or cells: E. coli BL21 star (DE3) ΔgldA::Cm with pETTOPO-gldA*(T120N); conditions: crude extract
T2 sequence (P0A9S5 1-367 T120N): T1 sequence (P0A9S5 1-367 A160T) with T120N, T160A
Experimental: as §1, §2

[4] = biological target: T3, E. coli glycerol dehydrogenase (GlyDH, GldA), native (wild type) (Escherichia coli, UniProt P0A9S5); assay: Kinetics toward NADH and inhibition by NAD+, crude extract, native GlyDH
T3 sequence (P0A9S5 1-367): T1 sequence (P0A9S5 1-367 A160T) with T160A

[5] = biological target: T3, E. coli glycerol dehydrogenase (GlyDH, GldA), native (wild type); assay: Inhibition by product 1,2-propanediol, native GlyDH; type: biochemical; set-up: made in house; host or cells: E. coli BL21 star (DE3) ΔgldA::Cm with pETTOPO-gldA; conditions: read-out: loss of maximum activity
Experimental: as §1, §2

[6] = system: Glycerol dehydrogenase (GlyDH); type: biochemical, E. coli; conditions: for Specific activity, Glycolaldehyde: substrate glycolaldehyde; for Specific activity, Glycolaldehyde / Specific activity, Hydroxyacetone / Specific activity, Methyl glyoxal: purified enzyme, pH 6.5, 30° C.; for Specific activity, Hydroxyacetone: substrate hydroxyacetone; for Specific activity, Methyl glyoxal: substrate methyl glyoxal
Experimental: The oxidation reaction was carried out in quartz cuvette cells filled with 1 ml of the mixture: 100 mM MES buffer pH 6.5 with 30 mM of ammonium sulphate, 0.1 mM of iron sulphate, 0.1 mM of NADH and around 0.5 μg of purified proteins. […] In all reactions, non enzymatic rates were subtracted from the observed initial reaction rates. Enzyme activities are reported as μmoles of substrate/min/mg of […] and represents averages for at least three purified enzyme preparations.
The purification process designed to purify the glycerol dehydrogenase overexpressed in E. coli is composed of two steps. […] Cell pellets were resuspended in 3 ml of 50 mM HEPES buffer pH 7.5 containing protease inhibitor cocktail (Roche) and homogenized by sonication (at 0° C., under aerobic conditions, in four cycles of 30 s with 2 minutes intervals between each cycle). Cells debris were eliminated by centrifugation (5 min 12000 g) and nucleic acids in cell homogenate were precipitated by a streptomycin sulphate treatment (13.3 mg/ml final concentration, 15 minutes, 0° C.). The streptomycin sulphate treated cell homogenate was harvested by centrifugation (5 min 12000 g), and contaminant proteins of the supernatant were eliminated by ammonium sulphate precipitation at a saturated concentration of 20%, at 4° C., with stirring over one hour. The precipitate was then removed by centrifugation (20 min, 8600 g, 4° C.) and discarded. A further portion of ammonium sulphate at a saturated concentration of 30% was added to the supernatant as previously and then centrifuged 30 minutes at 8600 g 4° C. collecting the precipitate. The precipitate was dissolved in 3 ml of 50 mM Hepes Buffer pH 7.5 with 1M ammonium sulphate before loading 2.5 ml sample onto a hydrophobic interaction chromatography column (Hitrap phenyl sepharose, GEhealthcare) connected to an AKTA purifier system and equilibrated with 50 mM Hepes Buffer pH 7.5 containing 1M ammonium sulphate. After washing with 20 ml of the same buffer, proteins were eluted with a 20 ml linear gradient of 50 mM Hepes Buffer pH 7.5 from 1 M to 0 M of ammonium sulphate. […] The protein concentration and purity were respectively determined with the Bradford reagent and with sodium dodecylsulfate polyacrylamide gel electrophoresis (FIG. 3).
The kinetic parameters were determined with Sigma Plot (Systat Software Inc, San Jose Calif.) by fitting to the Michaelis Menten equation using a non linear regression.

[7] = system: Glycerol dehydrogenase (GlyDH); type: biochemical, E. coli; conditions: crude extract; hydroxyacetone as substrate
Experimental: (§3) Glycerol dehydrogenase activity was assayed by measuring the initial rate of NADH oxidation with a spectrophotometer at a wavelength of 340 nm and at a constant temperature of 30° C. […] Control assay (blank), lacking the substrate was run in parallel and the value measured for the control was subtracted to the value measured for the assay to take into account non-specific oxidation of NADH.
(§4) One unit of enzyme activity was defined as the amount of enzyme that consumed 1 μmol substrate per minute under the conditions of the assay. Specific enzyme activity was expressed as units per mg of protein.
(§5) Enzyme kinetics with regards to NADH were realised with increasing concentration of NADH between 0.025 and 0.4 mM.

[8] = substrate: CC(=O)CO; assay: purified protein, by the assay type; conditions: other: purified enzyme, pH 6.5, 30° C., 0.1 mM NADH, hydroxyacetone 0.1 to 15 mM
[9] = biological target: T4, Glycerol dehydrogenase (GlyDH) (Escherichia coli, UniProt P0A9S5, A160T); type: biochemical, E. coli; conditions: NAD+ 0.6-1.2-2.5-4 mM
T4 construct: made in house; host or cells: E. coli MG1655, plasmid pME101-VB01-gldA; crude extract, not purified
Experimental: as §3, §4, §5

Molecule: CC(=O)CO [Hydroxyacetone, hydroxyacetone]
- Ki [1]: 11.6 mM
- Ki Hydroxyacetone increase by a factor (vs native) [2]: more than 10
- Ki Hydroxyacetone increase by a factor (vs native) [3]: more than 10

Molecule: NC(=O)c1ccc[n+]([C@@H]2O[C@H](COP(=O)([O-])OP(=O)(O)OC[C@H]3O[C@@H](n4cnc5c(N)ncnc54)[C@H](O)[C@@H]3O)[C@@H](O)[C@H]2O)c1 [NAD+]
- Ki [4]: 430 µM

Molecule: CC(O)CO (centres unmarked) [1,2-propanediol]
- inhibition at 40000 µM [5]: 50%
- inhibition at 100000 µM [5]: 65%

B1: E. coli glycerol dehydrogenase (GlyDH, GldA), native (wild type) (Escherichia coli K-12) (protein)
chain: T1 sequence (P0A9S5 1-367 A160T) with T160A
- Specific activity, Glycolaldehyde [6]: 148.89 +/− 19.36 U/mg
- Specific activity, Hydroxyacetone [6]: 36.3 +/− 0.88 U/mg
- Specific activity, Methyl glyoxal [6]: 57.77 +/− 3.81 U/mg
- Specific activity [7]: 1240 ± 77 nmol/min/mg
- Km [8]: 0.07 ± 0.02 mM

B2: E. coli glycerol dehydrogenase (GlyDH, GldA) mutant GlyDH*(A160T) (Escherichia coli K-12; A160T) (protein)
chain: T1 sequence (P0A9S5 1-367 A160T)
- Specific activity, Glycolaldehyde [6]: 167.33 +/− 6.03 U/mg
- Specific activity, Hydroxyacetone [6]: 40.5 +/− 0.85 U/mg
- Specific activity, Methyl glyoxal [6]: 58.27 +/− 2.42 U/mg
- Kinetics compared with native enzyme ([6]; three substrates, pH 6.5): no significant differences
- Inhibition by NAD+ at the concentrations used [9]: almost no inhibition
- Specific activity [7]: 1140 ± 42 nmol/min/mg

Reference: patent US8980604B2 (priority 2009, dated 2015)
